# Measurements published in US20260001928A1 (CORTERIA PHARMACEUTICALS, priority 2022, published 2026).
# *1 amine or outer side, *2 acyl side, *3 side chain or, on linkers, in order; H or OH if unused. Where no end group is shown, it is not given here. Side-chain parts run from the residue outwards. [ ]: non-standard residue; d: D form. The star is where a group is joined. C20 diacid = O=C(O)CCCCCCCCCCCCCCCCCCC(=O)*; C16 diacid = O=C(O)CCCCCCCCCCCCCCC(=O)*; γGlu = O=C(O)[C@H](CCC(=O)[*:2])N[*:1]; NMeI = CC[C@H](C)[C@H](NC)C(=O)O; Aib = CC(C)(N)C(=O)O
# T1: CRF1R receptor (UniProt P34998 24-415, limits assumed)
# T1 sequence (looked up): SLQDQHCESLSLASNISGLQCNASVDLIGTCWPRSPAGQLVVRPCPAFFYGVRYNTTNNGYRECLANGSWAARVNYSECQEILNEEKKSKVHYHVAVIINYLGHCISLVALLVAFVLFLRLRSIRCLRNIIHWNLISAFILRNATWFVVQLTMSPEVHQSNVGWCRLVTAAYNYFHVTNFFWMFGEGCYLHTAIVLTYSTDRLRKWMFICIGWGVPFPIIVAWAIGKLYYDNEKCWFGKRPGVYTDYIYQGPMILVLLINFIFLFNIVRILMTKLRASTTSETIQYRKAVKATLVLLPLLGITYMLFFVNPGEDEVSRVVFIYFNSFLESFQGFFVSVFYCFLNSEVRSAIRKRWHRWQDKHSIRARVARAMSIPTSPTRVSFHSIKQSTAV
# B1: SEQ ID NO 212 (peptide)
# peptide: Ac-IVLSLD[dV]PIKLK([γGlu-C20 diacid])KILLEQEKQKAQREQAETN[Aib]QILAQV-NH2
# SMILES: CC[C@H](C)[C@H](NC(C)=O)C(=O)N[C@H](C(=O)N[C@@H](CC(C)C)C(=O)N[C@@H](CO)C(=O)N[C@@H](CC(C)C)C(=O)N[C@@H](CC(=O)O)C(=O)N[C@@H](C(=O)N1CCC[C@H]1C(=O)N[C@H](C(=O)N[C@@H](CCCCN)C(=O)N[C@@H](CC(C)C)C(=O)N[C@@H](CCCCNC(=O)CC[C@H](NC(=O)CCCCCCCCCCCCCCCCCCC(=O)O)C(=O)O)C(=O)N[C@@H](CCCCN)C(=O)N[C@H](C(=O)N[C@@H](CC(C)C)C(=O)N[C@@H](CC(C)C)C(=O)N[C@@H](CCC(=O)O)C(=O)N[C@@H](CCC(N)=O)C(=O)N[C@@H](CCC(=O)O)C(=O)N[C@@H](CCCCN)C(=O)N[C@@H](CCC(N)=O)C(=O)N[C@@H](CCCCN)C(=O)N[C@@H](C)C(=O)N[C@@H](CCC(N)=O)C(=O)N[C@@H](CCCNC(=N)N)C(=O)N[C@@H](CCC(=O)O)C(=O)N[C@@H](CCC(N)=O)C(=O)N[C@@H](C)C(=O)N[C@@H](CCC(=O)O)C(=O)N[C@H](C(=O)N[C@@H](CC(N)=O)C(=O)NC(C)(C)C(=O)N[C@@H](CCC(N)=O)C(=O)N[C@H](C(=O)N[C@@H](CC(C)C)C(=O)N[C@@H](C)C(=O)N[C@@H](CCC(N)=O)C(=O)N[C@H](C(N)=O)C(C)C)[C@@H](C)CC)[C@@H](C)O)[C@@H](C)CC)[C@@H](C)CC)C(C)C)C(C)C
# B2: SEQ ID NO 214 (peptide)
# peptide: [NMeI]VLSLD[dV]PIKLK([γGlu-C20 diacid])KILLEQEKQKKQREQAETN[Aib]QILAQV-NH2
# modifications: N-terminus assumed
# SMILES: CC[C@H](C)[C@H](NC)C(=O)N[C@H](C(=O)N[C@@H](CC(C)C)C(=O)N[C@@H](CO)C(=O)N[C@@H](CC(C)C)C(=O)N[C@@H](CC(=O)O)C(=O)N[C@@H](C(=O)N1CCC[C@H]1C(=O)N[C@H](C(=O)N[C@@H](CCCCN)C(=O)N[C@@H](CC(C)C)C(=O)N[C@@H](CCCCNC(=O)CC[C@H](NC(=O)CCCCCCCCCCCCCCCCCCC(=O)O)C(=O)O)C(=O)N[C@@H](CCCCN)C(=O)N[C@H](C(=O)N[C@@H](CC(C)C)C(=O)N[C@@H](CC(C)C)C(=O)N[C@@H](CCC(=O)O)C(=O)N[C@@H](CCC(N)=O)C(=O)N[C@@H](CCC(=O)O)C(=O)N[C@@H](CCCCN)C(=O)N[C@@H](CCC(N)=O)C(=O)N[C@@H](CCCCN)C(=O)N[C@@H](CCCCN)C(=O)N[C@@H](CCC(N)=O)C(=O)N[C@@H](CCCNC(=N)N)C(=O)N[C@@H](CCC(=O)O)C(=O)N[C@@H](CCC(N)=O)C(=O)N[C@@H](C)C(=O)N[C@@H](CCC(=O)O)C(=O)N[C@H](C(=O)N[C@@H](CC(N)=O)C(=O)NC(C)(C)C(=O)N[C@@H](CCC(N)=O)C(=O)N[C@H](C(=O)N[C@@H](CC(C)C)C(=O)N[C@@H](C)C(=O)N[C@@H](CCC(N)=O)C(=O)N[C@H](C(N)=O)C(C)C)[C@@H](C)CC)[C@@H](C)O)[C@@H](C)CC)[C@@H](C)CC)C(C)C)C(C)C
# B3: SEQ ID NO 213 (peptide)
# peptide: Ac-IVLSLD[dV]PIKLK([γGlu-C20 diacid])KILLEQEKQKEQREQAETN[Aib]QILAQV-NH2
# SMILES: CC[C@H](C)[C@H](NC(C)=O)C(=O)N[C@H](C(=O)N[C@@H](CC(C)C)C(=O)N[C@@H](CO)C(=O)N[C@@H](CC(C)C)C(=O)N[C@@H](CC(=O)O)C(=O)N[C@@H](C(=O)N1CCC[C@H]1C(=O)N[C@H](C(=O)N[C@@H](CCCCN)C(=O)N[C@@H](CC(C)C)C(=O)N[C@@H](CCCCNC(=O)CC[C@H](NC(=O)CCCCCCCCCCCCCCCCCCC(=O)O)C(=O)O)C(=O)N[C@@H](CCCCN)C(=O)N[C@H](C(=O)N[C@@H](CC(C)C)C(=O)N[C@@H](CC(C)C)C(=O)N[C@@H](CCC(=O)O)C(=O)N[C@@H](CCC(N)=O)C(=O)N[C@@H](CCC(=O)O)C(=O)N[C@@H](CCCCN)C(=O)N[C@@H](CCC(N)=O)C(=O)N[C@@H](CCCCN)C(=O)N[C@@H](CCC(=O)O)C(=O)N[C@@H](CCC(N)=O)C(=O)N[C@@H](CCCNC(=N)N)C(=O)N[C@@H](CCC(=O)O)C(=O)N[C@@H](CCC(N)=O)C(=O)N[C@@H](C)C(=O)N[C@@H](CCC(=O)O)C(=O)N[C@H](C(=O)N[C@@H](CC(N)=O)C(=O)NC(C)(C)C(=O)N[C@@H](CCC(N)=O)C(=O)N[C@H](C(=O)N[C@@H](CC(C)C)C(=O)N[C@@H](C)C(=O)N[C@@H](CCC(N)=O)C(=O)N[C@H](C(N)=O)C(C)C)[C@@H](C)CC)[C@@H](C)O)[C@@H](C)CC)[C@@H](C)CC)C(C)C)C(C)C
# B4: SEQ ID NO 215 (peptide)
# peptide: [NMeI]VLSLD[dV]PIKLK([γGlu-C20 diacid])KILLEQEKQK[Aib]QREQAETN[Aib]QILAQV-NH2
# modifications: N-terminus assumed
# SMILES: CC[C@H](C)[C@H](NC)C(=O)N[C@H](C(=O)N[C@@H](CC(C)C)C(=O)N[C@@H](CO)C(=O)N[C@@H](CC(C)C)C(=O)N[C@@H](CC(=O)O)C(=O)N[C@@H](C(=O)N1CCC[C@H]1C(=O)N[C@H](C(=O)N[C@@H](CCCCN)C(=O)N[C@@H](CC(C)C)C(=O)N[C@@H](CCCCNC(=O)CC[C@H](NC(=O)CCCCCCCCCCCCCCCCCCC(=O)O)C(=O)O)C(=O)N[C@@H](CCCCN)C(=O)N[C@H](C(=O)N[C@@H](CC(C)C)C(=O)N[C@@H](CC(C)C)C(=O)N[C@@H](CCC(=O)O)C(=O)N[C@@H](CCC(N)=O)C(=O)N[C@@H](CCC(=O)O)C(=O)N[C@@H](CCCCN)C(=O)N[C@@H](CCC(N)=O)C(=O)N[C@@H](CCCCN)C(=O)NC(C)(C)C(=O)N[C@@H](CCC(N)=O)C(=O)N[C@@H](CCCNC(=N)N)C(=O)N[C@@H](CCC(=O)O)C(=O)N[C@@H](CCC(N)=O)C(=O)N[C@@H](C)C(=O)N[C@@H](CCC(=O)O)C(=O)N[C@H](C(=O)N[C@@H](CC(N)=O)C(=O)NC(C)(C)C(=O)N[C@@H](CCC(N)=O)C(=O)N[C@H](C(=O)N[C@@H](CC(C)C)C(=O)N[C@@H](C)C(=O)N[C@@H](CCC(N)=O)C(=O)N[C@H](C(N)=O)C(C)C)[C@@H](C)CC)[C@@H](C)O)[C@@H](C)CC)[C@@H](C)CC)C(C)C)C(C)C
# B5: SEQ ID NO 211 (peptide)
# peptide: Ac-IVLSLD[dV]PIKLK([γGlu-C20 diacid])KILLEQEAQKKQREQAETN[Aib]QILAQV-NH2
# SMILES: CC[C@H](C)[C@H](NC(C)=O)C(=O)N[C@H](C(=O)N[C@@H](CC(C)C)C(=O)N[C@@H](CO)C(=O)N[C@@H](CC(C)C)C(=O)N[C@@H](CC(=O)O)C(=O)N[C@@H](C(=O)N1CCC[C@H]1C(=O)N[C@H](C(=O)N[C@@H](CCCCN)C(=O)N[C@@H](CC(C)C)C(=O)N[C@@H](CCCCNC(=O)CC[C@H](NC(=O)CCCCCCCCCCCCCCCCCCC(=O)O)C(=O)O)C(=O)N[C@@H](CCCCN)C(=O)N[C@H](C(=O)N[C@@H](CC(C)C)C(=O)N[C@@H](CC(C)C)C(=O)N[C@@H](CCC(=O)O)C(=O)N[C@@H](CCC(N)=O)C(=O)N[C@@H](CCC(=O)O)C(=O)N[C@@H](C)C(=O)N[C@@H](CCC(N)=O)C(=O)N[C@@H](CCCCN)C(=O)N[C@@H](CCCCN)C(=O)N[C@@H](CCC(N)=O)C(=O)N[C@@H](CCCNC(=N)N)C(=O)N[C@@H](CCC(=O)O)C(=O)N[C@@H](CCC(N)=O)C(=O)N[C@@H](C)C(=O)N[C@@H](CCC(=O)O)C(=O)N[C@H](C(=O)N[C@@H](CC(N)=O)C(=O)NC(C)(C)C(=O)N[C@@H](CCC(N)=O)C(=O)N[C@H](C(=O)N[C@@H](CC(C)C)C(=O)N[C@@H](C)C(=O)N[C@@H](CCC(N)=O)C(=O)N[C@H](C(N)=O)C(C)C)[C@@H](C)CC)[C@@H](C)O)[C@@H](C)CC)[C@@H](C)CC)C(C)C)C(C)C
# Experiments:
# CRF1R receptor = molecular target: T1, CRF1R receptor; test: cell-based or functional assay
# [1] = molecular target: human corticotropin-releasing factor 2a (CRF2a receptor) (human), Q13324; test: cell-based or functional assay
# Chain of human corticotropin-releasing factor 2a (CRF2a receptor) (human), Q13324 (Q13324 20-411): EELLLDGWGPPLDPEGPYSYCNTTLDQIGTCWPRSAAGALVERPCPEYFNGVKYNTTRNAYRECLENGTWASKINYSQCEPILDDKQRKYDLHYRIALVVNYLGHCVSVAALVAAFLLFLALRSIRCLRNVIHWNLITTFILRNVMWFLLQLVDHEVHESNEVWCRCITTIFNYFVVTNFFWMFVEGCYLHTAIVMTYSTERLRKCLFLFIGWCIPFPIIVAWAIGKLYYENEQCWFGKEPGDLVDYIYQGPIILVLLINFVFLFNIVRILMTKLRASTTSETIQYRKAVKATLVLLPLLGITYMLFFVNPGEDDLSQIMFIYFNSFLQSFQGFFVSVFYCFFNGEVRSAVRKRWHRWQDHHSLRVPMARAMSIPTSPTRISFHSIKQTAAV
binder,measurement,setting,value
B1,EC50,CRF1R receptor,229000 pM
same,Emax (% I),CRF1R receptor,41%
same,EC50 [nM] (cAMP),[1],0.11 nM
B2,Emax (% I),CRF1R receptor,34%
same,EC50 [nM] (cAMP),[1],0.12 nM
B3,Emax (% I),CRF1R receptor,27%
same,EC50 [nM] (cAMP),[1],0.22 nM
B4,Emax (% I),CRF1R receptor,19%
same,EC50 [nM] (cAMP),[1],0.12 nM
B5,EC50,CRF1R receptor,39900 pM
same,Emax (% I),CRF1R receptor,73%
same,EC50 [nM] (cAMP),[1],0.15 nM
IVLSLD[dV]PIKLK([γGlu-C16 diacid])QILLKQERQKKQREQAEKN[Aib]QILEQV-NH2 [SEQ ID NO 10],EC50,CRF1R receptor,> 250000 pM
same,Emax (% I),CRF1R receptor,26%
same,EC50 [nM] (cAMP),[1],0.17 nM
